# From publication PMC9741607, “Cryo-electron tomography reveals structural insights into the membrane remodeling mode of dynamin-like EHD filaments” (Nature Communications, 2022)
# B1: mouse EHD4 (residues 22-541, EHD4^ΔN) (domain or fragment, UniProt Q9EQP2 22-541, looked up)
# chain: QTVTGGLRSLYQRKVLPLEEAYRFHEFHSPALEDADFENKPMILLVGQYSTGKTTFIRYLLEQDFPGMRIGPEPTTDSFIAVMYGETEGSTPGNALVVDPKKPFRKLSRFGNAFLNRFMCSQLPNQVLKSISIIDSPGILSGEKQRISRGYDFCQVLQWFAERVDRIILLFDAHKLDISDEFSEAIKAFRGQDDKIRVVLNKADQVDTQQLMRVYGALMWSLGKVINTPEVLRVYIGSFWAQPLQNTDNRRLFEAEAQDLFRDIQSLPQKAAVRKLNDLIKRARLAKVHAYIISYLKKEMPNMFGKENKKRELIYRLPEIYVQLQREYQISAGDFPEVKAMQEQLENYDFTKFHSLKPKLIEAVDNMLTNKISSLMGLISQEEMNMPTQMVQGGAFDGTTEGPFNQGYGEGAKEGADEEEWVVAKDKPVYDELFYTLSPINGKISGVNAKKEMVTSKLPNSVLGKIWKLADCDCDGMLDEEEFALAKHLIKIKLDGYELPNSLPPHLVPPSHRKSLPKAD
# notes: Eps15-homology domain containing protein 4 (EHD4), mouse, amino acids 22-541; N-terminal residues deleted; The fitted model covers residues 22-535; The His6 tag was removed with PreScission protease; also called N-terminal deletion construct of mouse EHD4; EHD4/Pincher; source: E. coli BL21(DE3)-Rosetta2, purified (NiNTA, Superdex 200); not shown: His6, N-terminal, cleaved
# Target: the molecule itself
# Assay: cryo-EM structure; cryo-electron tomography and subtomogram averaging of EHD4^ΔN filaments on membrane tubes (liposomes of 50% Folch extract, 40% phosphatidylethanolamine, 10% cholesterol) with AMPPNP; pseudo-atomic model by rigid-body and flexible fitting
protein,measurement,value
B1,binding result,binds
